Source: the RNAGym collection of RNA variant scans (doi:10.7554/elife.80360)

B1: CPEB3 Ribozyme (parent)
chain: GGGGGCCACAGCAGAAGCGUUCACGUCGCGGCCCCUGUCAGAUUCUGGUGAAUCUGCGAAUUCUGCUGU

Variants of: B1
Test: self-cleavage, relative activity (ratio to wild type); higher = more cleavage; co-transcriptional

| Variant | self-cleavage |
| --- | --- |
| GGGGGGCACAGCAGAAGCGUUCACGUCGCGGCCCCUGUCAGAUUCUGGUGAAUCUGCGAAUUCUGCAGU [C6G U67A] | 0.325 |
| GGGGGGCACAGCAGAAGCGUUCACGUCGCGGCCCCUGUCAGAUUCUUGUGAAUCUGCGAAUUCUGCUGU [C6G G47U] | 0.463 |
| GGGGGUCACAGCAGAAGCGUUAACGUCGCGGCCCCUGUCAGAUUCUGGUGAAUCUGCGAAUUCUGCUGU [C6U C22A] | 0.172 |
| GGGGGUCACAGCAGAAGCGUUUACGUCGCGGCCCCUGUCAGAUUCUGGUGAAUCUGCGAAUUCUGCUGU [C6U C22U] | 0.198 |
| GGGGGGCACAGCAGAAGCGUUCACGUCGCGGCCCCUGUCAGAUUCUGGUCAAUCUGCGAAUUCUGCUGU [C6G G50C] | 0.205 |
| GGGGGUCACAGCAGAAGCGUUCACGUCGCGGCGCCUGUCAGAUUCUGGUGAAUCUGCGAAUUCUGCUGU [C6U C33G] | 0.145 |
| GGGGGUCACAGCAGAAGCGUUCACGUCGCGGCACCUGUCAGAUUCUGGUGAAUCUGCGAAUUCUGCUGU [C6U C33A] | 0.257 |
| GGGGGUCACAGCAGAAGCGUUCACGUCUCGGCCCCUGUCAGAUUCUGGUGAAUCUGCGAAUUCUGCUGU [C6U G28U] | 0.168 |
| GGGGGUCACAGCAGAAGCGAUCACGUCGCGGCCCCUGUCAGAUUCUGGUGAAUCUGCGAAUUCUGCUGU [C6U U20A] | 0.115 |
| GGGGGUCACAGCAGAAGCGCUCACGUCGCGGCCCCUGUCAGAUUCUGGUGAAUCUGCGAAUUCUGCUGU [C6U U20C] | 0.144 |
| GGGGGUCACAGCAGAAGCGUUCACGUCGCGGCCCCUGUCAGAUUCUGGUGGAUCUGCGAAUUCUGCUGU [C6U A51G] | 1.01 |
| GGGGGUCACAGCAGAAGCGUUCACGUCGCGGCCCCUGUCAGAUUCUGGUGUAUCUGCGAAUUCUGCUGU [C6U A51U] | 0.986 |
| GGGGGUCACAGCAGAAGCGUUCACGUCGCGGACCCUGUCAGAUUCUGGUGAAUCUGCGAAUUCUGCUGU [C6U C32A] | 0.177 |
| GGGGGGCACAGCAGAAGCGUUCACGUCGCGGCCCCCGUCAGAUUCUGGUGAAUCUGCGAAUUCUGCUGU [C6G U36C] | 0.184 |
| GGGGGGCACAGCAGAAGCGUUCACGUCGCGGCCCCUGUCAGAUUCUGAUGAAUCUGCGAAUUCUGCUGU [C6G G48A] | 0.493 |
| GGGGGUCACAGCAGAAGCGUUCACGUCGCGGCCCCUGUCAGAUUCUGGUGAAUCUGCGAAUUCUACUGU [C6U G65A] | 0.849 |
| GGGGGUCACAGCAGAAGCGUUCACGUCGCGGCCCCUGUCAGAUUCUGGUGAAUCUACGAAUUCUGCUGU [C6U G56A] | 0.962 |
| GGGGGUCACAGCAGAAGCGUACACGUCGCGGCCCCUGUCAGAUUCUGGUGAAUCUGCGAAUUCUGCUGU [C6U U21A] | 0.997 |
| GGGGGUCACAGCAGAAGCGUUCACGUCGCGGCCCCUGUAAGAUUCUGGUGAAUCUGCGAAUUCUGCUGU [C6U C39A] | 0.852 |
| GGGGGGCACAGCAGAAGCGUUCACGUCGCGGCCCCUGUCAGAUUCUGGUGAAUCUGCGAAUCCUGCUGU [C6G U62C] | 0.0999 |

| Variant | self-cleavage |
| --- | --- |
| GGGGGGCACAGCAGAAGCGUUCACGUCGCGGCCCCUGUCACAUUCUGGUGAAUCUGCGAAUUCUGCUGU [C6G G41C] | 0.118 |
| GGGGGGCACAGCAGAAGCGUUCACGUCGCGGCCCCUGUCAGAUUCUGGUGAAUCUGCGAAAUCUGCUGU [C6G U61A] | 0.128 |
| GGGGGGCACAGCAGAAGCGUUCACGUCGCGGCCCCUGUCAGAUUCUGGUGAAUCUGCGAAGUCUGCUGU [C6G U61G] | 0.209 |
| GGGGGUCACAGCAGAAGCGUUCACGUCGCGGCCCCUGUCAGAUUCUGGUGAGUCUGCGAAUUCUGCUGU [C6U A52G] | 0.997 |
| GGGGGUCACAGCAGAAGCGUUCGCGUCGCGGCCCCUGUCAGAUUCUGGUGAAUCUGCGAAUUCUGCUGU [C6U A23G] | 1.03 |
| GGGGGUCACAGCAGAAGCGUUCACGUCGCGGCCGCUGUCAGAUUCUGGUGAAUCUGCGAAUUCUGCUGU [C6U C34G] | 0.188 |
| GGGGGGCACAGCAGAAGCGUUCACGUCGCGGCCCCUGUCAGAGUCUGGUGAAUCUGCGAAUUCUGCUGU [C6G U43G] | 0.126 |
| GGGGGGCACAGCAGAAGCGUUCACGUCGCGGCCCCUGUCAGAAUCUGGUGAAUCUGCGAAUUCUGCUGU [C6G U43A] | 0.172 |
| GGGGGUCACAGCAGAAGCGUUCACGUCGCGGCCCCUGUCAGAUUCUGGUGAAUCUGCUAAUUCUGCUGU [C6U G58U] | 1.01 |
| GGGGGGCACAGCAGAAGCGUACACGUCGCGGCCCCUGUCAGAUUCUGGUGAAUCUGCGAAUUCUGCUGU [C6G U21A] | 0.246 |
| GGGGGUCACAGCAGUAGCGUUCACGUCGCGGCCCCUGUCAGAUUCUGGUGAAUCUGCGAAUUCUGCUGU [C6U A15U] | 0.698 |
| GGGGGUCACAGCAGAAGCGUUCACAUCGCGGCCCCUGUCAGAUUCUGGUGAAUCUGCGAAUUCUGCUGU [C6U G25A] | 0.141 |
| GGGGGUCACAGCAGAAGCGUUCACUUCGCGGCCCCUGUCAGAUUCUGGUGAAUCUGCGAAUUCUGCUGU [C6U G25U] | 0.18 |
| GGGGGUCACAGCAGAAGCGUUCACGUCGCGACCCCUGUCAGAUUCUGGUGAAUCUGCGAAUUCUGCUGU [C6U G31A] | 1.02 |
| GGGGGGCACAGCAGAAGCGUUCACGUCGCGGCCCCUGUCAGAUUCUGGUGAAGCUGCGAAUUCUGCUGU [C6G U53G] | 0.136 |
| GGGGGUCACAGCAGAAGCGUUCACGUCGCGGCCCCCGUCAGAUUCUGGUGAAUCUGCGAAUUCUGCUGU [C6U U36C] | 0.969 |
| GGGGGUCACAGCAGAAGCGUUCACGUCGCGGCCCCUGUCAUAUUCUGGUGAAUCUGCGAAUUCUGCUGU [C6U G41U] | 0.817 |
| GGGGGGCACAGCAGAAGCGUUCACGUCGCGGCCCCUUUCAGAUUCUGGUGAAUCUGCGAAUUCUGCUGU [C6G G37U] | 0.0713 |
| GGGGGUCACAGCAGAAGCGUUCACGUCGCGGCCCCUGUCGGAUUCUGGUGAAUCUGCGAAUUCUGCUGU [C6U A40G] | 0.999 |
